In one data set the target is T1, PriA helicase (Neisseria gonorrhoeae, UniProt Q5F6V8 1-729).
T1 sequence: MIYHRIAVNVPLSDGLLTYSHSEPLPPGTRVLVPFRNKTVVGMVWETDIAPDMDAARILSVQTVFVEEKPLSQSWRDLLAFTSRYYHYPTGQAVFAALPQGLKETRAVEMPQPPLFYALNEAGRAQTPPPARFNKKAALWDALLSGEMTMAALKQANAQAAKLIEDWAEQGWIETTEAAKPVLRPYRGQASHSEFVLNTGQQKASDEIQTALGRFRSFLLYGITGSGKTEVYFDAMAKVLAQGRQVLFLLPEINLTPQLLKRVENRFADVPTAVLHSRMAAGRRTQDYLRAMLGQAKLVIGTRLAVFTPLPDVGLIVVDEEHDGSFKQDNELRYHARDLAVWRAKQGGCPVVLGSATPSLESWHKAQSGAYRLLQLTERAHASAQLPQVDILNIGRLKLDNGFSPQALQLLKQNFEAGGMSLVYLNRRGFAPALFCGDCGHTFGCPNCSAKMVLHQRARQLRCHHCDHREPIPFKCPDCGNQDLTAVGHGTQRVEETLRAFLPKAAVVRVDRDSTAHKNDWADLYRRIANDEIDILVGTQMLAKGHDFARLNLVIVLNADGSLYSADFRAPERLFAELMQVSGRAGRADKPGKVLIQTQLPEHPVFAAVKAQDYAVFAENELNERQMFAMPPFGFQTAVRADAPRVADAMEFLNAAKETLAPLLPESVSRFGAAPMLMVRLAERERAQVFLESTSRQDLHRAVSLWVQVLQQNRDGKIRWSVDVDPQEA
In words: fluorescence polarization; 20 mM Tris-HCl pH 8, 10% glycerol, 50 mM NaCl, 1 mM 2-mercaptoethanol, 0.1 mg/ml BSA, 1 nM fluorescein-labeled DNA, 25 C. As to conditions: protein: recombinant.

Another data set addresses T2, PriB (Neisseria gonorrhoeae, UniProt Q5F924 1-100).
T2 sequence: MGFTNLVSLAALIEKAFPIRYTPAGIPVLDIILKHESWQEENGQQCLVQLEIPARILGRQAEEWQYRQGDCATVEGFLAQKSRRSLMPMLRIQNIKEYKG
Described as above. As to conditions: protein: recombinant, chain copies: 2.

Substrate in data set [1]: Nc1ncnc2c1ncn2[C@@H]1O[C@H](COP(=O)(O)OP(=O)(O)OP(=O)(O)O)[C@@H](O)[C@H]1O
The experiment in a line: NADH-coupled spectrophotometric ATPase assay (pyruvate kinase / lactate dehydrogenase). The class given is biochemical, Neisseria gonorrhoeae. The settings on record: 100 nM Fork 3 DNA, no PriB, 10 nM PriA, 20 mM Hepes pH 8, 50 mM NaCl, 25°C. From the text:
NADH-coupled spectrophotometric ATPase assay (pyruvate kinase / lactate dehydrogenase) on N. gonorrhoeae PriA

For data set [2], the target named is T3, N. gonorrhoeae PriA (N. gonorrhoeae) (UniProt Q5F6V8).
T3 sequence: T1 sequence

For data set [3], the target named is T3, N. gonorrhoeae PriA (N. gonorrhoeae). The source holds these as a separate data set.
[4] abbreviates: label: 3' fluorescein on S5 (nascent lagging strand), 25 bp duplex, 3' overhang 25 nt on strand 1.
Where [5] appears, read: label: 3' fluorescein, single strand.

B1: 3' Overhang (oML276/oML277) (mixed)
DNA 1: AACGTCATAGACGATTACATTGCTACATGGAGCTGTCTAGAGGATCCGAC
DNA 2: TAGCAATGTAATCGTCTATGACGTT
In the case of B1, the Kd (as a rule, a measure of binding affinity in units of concentration) with PriA helicase (setting [4]) stood at 234 ± 62 nM; in the data set with PriB (setting [4]) it was 628 ± 95 nM.

B2: N. gonorrhoeae PriA (Neisseria gonorrhoeae FA 1090) (protein)
chain: T1 sequence
As to B2, in data set [1], the Km – broadly, the substrate concentration at which the rate is half of its maximum – turned out to be 54 ± 19 µM; the kcat (in general, the number of substrate molecules converted per active site and unit of time at saturation) worked out at 9 ± 1 s⁻¹.

B3: N. gonorrhoeae PriB (natural protein)
chain: T2 sequence
In data set [2], B3 showed a fold stimulation of PriA helicase activity by PriB (unwinding with versus without PriB; 2 nM PriA, 100 nM PriB monomers, 1 nM 15 bp fork, Fork 1) of 1.2 fold; a fold stimulation of PriA helicase activity by PriB (unwinding with versus without PriB; 2 nM PriA, 100 nM PriB monomers, 1 nM 25 bp fork, Fork 2) of 1.7 fold; a fold stimulation of PriA helicase activity by PriB (unwinding with versus without PriB; 2 nM PriA, 100 nM PriB monomers, 1 nM 40 bp fork, Fork 3) of 2.4 fold. In data set [3], this molecule had a percent unwinding of 1 nM Fork 3 by 2 nM PriA against PriB concentration (0 to 100 nM as monomers; 36% without PriB, near saturation at 20 nM) of 86%.

On to AAGCACAATTACCCACGC (ssDNA) [ssDNA (oML228)], for which the results for the Kd with PriA helicase (setting [5]) and in the data set with PriB (setting [5]) were 307 ± 43 nM and 662 ± 37 nM, respectively.

The record behind these values is publication PMC3179954, “A bacterial PriB with weak single-stranded DNA binding activity can stimulate the DNA unwinding activity of its cognate PriA helicase” (BMC Microbiology, 2011).
